# Legend:
# Format in all cases: cell-based
# [1] = tested on: human fibroblast-derived HT-1080; experiment: Fibronectin EIA in HT-1080 cells expressing TAK1-DN with or without TGF-β; conditions: 1 ng/ml TGF-β, 24 hours; for increase of fibronectin in the culture supernatant by TGF-β addition: control HT/NEO about 6.1 fold; for increase of fibronectin in the extracellular matrix extract by TGF-β addition: control HT/NEO about 11.4 fold
# Excerpt: (§1) Then, pTAK1DN or pCOS1 that contains no inserted genes as a control vector was linearized by digesting with a restriction enzyme PvuI. These linearized vectors were introduced by electroporation into human fibroblast-derived HT-1080 (ATCC CCL 121), a mouse kidney mesangial cell line SV40MES13 (ATCC CRL 1927), and a mink pulmonary epithelial cell line Mv1Lu (ATCC CCL 64), and cells into which the gene was introduced were selected using G418 (manufactured by GIBCO-BRL).
# The human fibroblast-derived HT-1080 cells (HT/DN2 and HT/DN14) into which pTAK1DN had been introduced and the control cells (HT/NEO) into which pCOS1 containing no inserted genes had been introduced were incubated in a low-serum medium (Medium 199 containing 0.2% FBS; manufactured by GIBCO BRL) with or without 1 ng/ml TGF-β (manufactured by King Jozo) for 24 hours. The amount of fibronectin in the culture supernatant or the extracellular matrix extract prepared using 1 M urea solution (1 M urea, 1 mM DTT, 10 mM Tris-HCl, pH 7.4, 10 mM EDTA, Protease inhibitor cocktail (CompleteTM, manufactured by Boehringer-Mannheim)) was determined by the EIA method.
# Thus, 100 μl of the culture supernatant or the extracellular matrix extract prepared using 1 M urea solution was added to a 96-well microtiter plate (manufactured by Nunc), and the plate was incubated overnight at 4° C. After washing, it was blocked using a 1% BSA solution (50 mM Tris-HCl, pH 8.0, 1 mM MgCl2, 150 mM NaCl, 0.05% Tween 20, 0.02% sodium azide), and then 10000 fold-diluted rabbit anti-human fibronectin antibody (manufactured by CALBIOCHEM) was added to the above 1% BSA solution, and was further incubated at room temperature for 2 hours.
# After washing, alkaline phosphatase-labeled goat anti-rabbit Ig antibody (manufactured by TAGO) was added, and was further incubated at room temperature for one hour. Then the substrate solution (p-nitrophenyl phosphate; manufactured by Sigma) was added and absorbance at […] was measured. As a standard, human fibronectin (manufactured by Cappel) was used.
# [2] = tested on: mouse kidney mesangial cell line SV40MES13; experiment: Fibronectin EIA in SV40MES13 cells expressing TAK1-DN with or without TGF-β; conditions: 2.5 ng/ml TGF-β, 24 hours; for increase of fibronectin in the culture supernatant by TGF-β addition: control MES/NEO about 3.3 fold; for increase of fibronectin in the extracellular matrix extract by TGF-β addition: control MES/NEO about 3.8 fold
# Excerpt: as §1
# (§2) The mouse mesangial cell line SV40MES13 (MES/DN3 and MES/DN6) into which pTAK1DN had been introduced and the control cells (MES/NEO) into which pCOS1 containing no inserted genes had been introduced were incubated in a low-serum medium (Medium 199 containing 0.2% FBS) with or without 2.5 ng/ml TGF-β for 24 hours. The amount of fibronectin in the culture supernatant or the extracellular matrix extract prepared using 1 M urea solution was determined by the EIA method as described in Example 7.
# [3] = tested on: mouse kidney mesangial cell line SV40MES13; experiment: Type I and type IV collagen EIA in SV40MES13 cells expressing TAK1-DN with or without TGF-β; conditions: 2.5 ng/ml TGF-β, 24 hours; for increase of type IV collagen in the culture supernatant by TGF-β addition: control MES/NEO about 2.0 fold; for increase of type I collagen in the culture supernatant by TGF-β addition: control MES/NEO about 3.6 fold
# Description: as §2
# Furthermore, the amount of type I and type IV collagen in the culture supernatant was determined by the EIA method. Thus, 100 μl of the culture supernatant was added to a 96-well microtiter plate (manufactured by Nunc), and the plate was incubated overnight at 4° C. After washing, it was blocked using the above 1% BSA solution, and then 5000-fold diluted rabbit anti-mouse type I collagen antibody (manufactured by LSL) or rabbit anti-mouse type IV collagen antibody (manufactured by LSL) was added, and was further incubated at room temperature for 2 hours. After washing, alkaline phosphatase-labeled goat anti-rabbit Ig antibody (manufactured by TAGO) was added, and was further incubated at room temperature for one hour. Then the substrate solution (manufactured by Sigma) was added and absorbance at […] was measured. As a standard, mouse type I collagen (manufactured by Chemicon) or mouse type IV collagen (manufactured by Cosmobio) was used.
molecule,measurement,setting,value
"TAK1-DN: polypeptide of Glu at position 77 to Gln at position 303 of TAK1 (SEQ ID NO: 4), the TAB1 binding site; dominant negative inhibitor (protein) ELRQLSRVNHPNIVKLYGACLNPVCLVMEYAEGGSLYNVLHGAEPLPYYTAAHAMSWCLQCSQGVAYLHSMQPKALIHRDLKPPNLLLVAGGTVLKICDFGTACDIQTHMTNNKGSAAWMAPEVFEGSNYSEKCDVFSWGIILWEVITRRKPFDEIGGPAFRIMWAVHNGTRPPLIKNLPKPIESLMTRCWSKDPSQRPSMEEIVKIMTHLMRYFPGADEPLQYPCQ",increase of fibronectin in the culture supernatant by TGF-β addition,[1]; HT/DN2 cells,about 2.6 fold
same,increase of fibronectin in the extracellular matrix extract by TGF-β addition,[1]; HT/DN2 cells,about 3.5 fold
same,increase of fibronectin in the culture supernatant by TGF-β addition,[1]; HT/DN14 cells,~3.0 fold
same,increase of fibronectin in the extracellular matrix extract by TGF-β addition,[1]; HT/DN14 cells,~3.6 fold
same,increase of fibronectin in the culture supernatant by TGF-β addition,[2]; MED/DN3 cells,about 2.4 fold
same,increase of fibronectin in the extracellular matrix extract by TGF-β addition,[2]; MED/DN3 cells,about 2.6 fold
same,increase of fibronectin in the culture supernatant by TGF-β addition,[2]; MES/DN6 cells,~2.3 fold
same,increase of fibronectin in the extracellular matrix extract by TGF-β addition,[2]; MES/DN6 cells,~2.1 fold
same,increase of type IV collagen in the culture supernatant by TGF-β addition,[3]; MED/DN3 cells,about 1.5 fold
same,increase of type I collagen in the culture supernatant by TGF-β addition,[3]; MED/DN3 cells,about 2.0 fold
same,increase of type IV collagen in the culture supernatant by TGF-β addition,[3]; MES/DN6 cells,~1.4 fold
same,increase of type I collagen in the culture supernatant by TGF-β addition,[3]; MES/DN6 cells,about 2.0 fold

# Reference: patent US6551840B2, “Method of screening TGF-β-inhibiting substances” (Chugai Seiyaku Kabushiki Kaisha, priority 1997, dated 2003)
